The test system of data set [1] is HeLa Kyoto. Put plainly: solubility in G1/S (NP-40 vs SDS abundance) (log2 ratio); higher = more soluble. The note with it: cell cycle stage: G1/S.
Data set [2] relates to HeLa Kyoto. Put plainly: thermal stability score vs G1/S (z-score of summed log2 fold changes over temperatures); higher = more thermally stable than in G1/S.
Data set [3] concerns HeLa Kyoto. In words: solubility change mitosis vs G1/S (difference of NP-40 vs SDS log2 ratios) (log2 ratio difference); higher = more soluble in mitosis.
In data set [4] the test system is HeLa Kyoto. In words: melting temperature (median over replicates), in situ; higher = more thermally stable.
Setting [5] is: cell cycle stage: early G1 (4.5 h after nocodazole release).
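Wherever melting temperature (median over replicates), in situ is given: HeLa Kyoto cells synchronized by double thymidine or nocodazole block, proteins quantified by TMT10plex mass spectrometry, three independent biological replicates.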
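Wherever solubility change mitosis vs G1/S (difference of NP-40 vs SDS log2 ratios) is given: synchronized HeLa Kyoto cells (double thymidine block for G1/S, nocodazole release for mitosis), protein amounts in NP-40 versus SDS lysates quantified by mass spectrometry, three biological replicates.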
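Wherever solubility in G1/S (NP-40 vs SDS abundance) is given: HeLa Kyoto cells arrested at G1/S by double thymidine block, proteins quantified by TMT10plex mass spectrometry in mild NP-40 versus SDS extracts, three biological replicates.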
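Wherever thermal stability score vs G1/S (z-score of summed log2 fold changes over temperatures) is given: synchronized HeLa Kyoto cells, proteins quantified by TMT10plex mass spectrometry, three biological replicates, mitosis taken 0.5 h after nocodazole release, G1/S directly after double thymidine block.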

With “MPRDNMASLIQRIARQACLTFRGSGGGRGASDRDAASGPEAPMQPGFPENLSKLKSLLTQLRAEDLNIAPRKATLQPLPPNLPPVTYMHIYETDGFSLGVFLLKSGTSIPLHDHPGMHGMLKVLYGTVRISCMDKLDAGGGQRPRALPPEQQFEPPLQPREREAVRPGVLRSRAEYTEASGPCILTPHRDNLHQIDAVEGPAAFLDILAPPYDPDDGRDCHYYRVLEPVRPKEASSSACDLPREVWLLETPQADDFWCEGEPYPGPKVFP [ADO]”, in the data set on HeLa Kyoto [1], the “solubility in G1/S (log2)” value came out at 0.474. Further, the thermal stability score is -2.72 with HeLa Kyoto [2] (setting [5]) and -3.58 in the data set on HeLa Kyoto [2] (cell cycle stage: mitosis). Besides, in the data set with HeLa Kyoto [3], the “solubility change mitosis (log2)” value turned out to be 0.0512. The melting temperature came out at 54.1 °C in the data set on HeLa Kyoto [4] (cell cycle stage: G1/S) and 53.7 °C with HeLa Kyoto [4] (cell cycle stage: mitosis).

With “MPRPGSAQRWAAVAGRWGCRLLALLLLVPGPGGASEITFELPDNAKQCFYEDIAQGTKCTLEFQVITGGHYDVDCRLEDPDGKVLYKEMKKQYDSFTFTASKNGTYKFCFSNEFSTFTHKTVYFDFQVGEDPPLFPSENRVSALTQMESACVSIHEALKSVIDYQTHFRLREAQGRSRAEDLNTRVAYWSVGEALILLVVSIGQVFLLKSFFSDKRTTTTRVGS [TMED7]”, in the data set with HeLa Kyoto [1], the “solubility in G1/S (log2)” value is -0.0739. Further, the thermal stability score in the data set with HeLa Kyoto [2] (setting [5]) was 2.43; with HeLa Kyoto [2] (cell cycle stage: mitosis), 0.528. Besides, in the data set on HeLa Kyoto [3], the “solubility change mitosis (log2)” value is -0.174. The values for the melting temperature with HeLa Kyoto [4] (cell cycle stage: G1/S) and in the data set on HeLa Kyoto [4] (cell cycle stage: mitosis) were 57.2 °C and 56.4 °C, respectively.

For “MPRRKKKVKEVSESRNLEKKDVETTSSVSVKRKRRLEDAFIVISDSDGEEPKEENGLQKTKTKQSNRAKCLAKRKIAQMTEEEQFALALKMSEQEAREVNSQEEEEEELLRKAIAESLNSCRPSDASATRSRPLATGPSSQSHQEKTTDSGLTEGIWQLVPPSLFKGSHISQGNEAEEREEPWDHTEKTEEEPVSGSSGSWDQSSQPVFENVNVKSFDRCTGHSAEHTQCGKPQESTGRGSAFLKAVQGSGDTSRHCLPTLADAKGLQDTGGTVNYFWGIPFCPDGVDPNQYTKVILCQLEVYQKSLKMAQRQLLNKKGFGEPVLPRPPSLIQNECGQGEQASEKNECISEDMGDEDKEERQESRASDWHSKTKDFQESSIKSLKEKLLLEEEPTTSHGQSSQGIVEETSEEGNSVPASQSVAALTSKRSLVLMPESSAEEITVCPETQLSSSETFDLEREVSPGSRDILDGVRIIMADKEVGNKEDAEKEVAISTFSSSNQVSCPLCDQCFPPTKIERHAMYCNGLMEEDTVLTRRQKEAKTKSDSGTAAQTSLDIDKNEKCYLCKSLVPFREYQCHVDSCLQLAKADQGDGPEGSGRACSTVEGKWQQRLKNPKEKGHSEGRLLSFLEQSEHKTSDADIKSSETGAFRVPSPGMEEAGCSREMQSSFTRRDLNESPVKSFVSISEATDCLVDFKKQVTVQPGSRTRTKAGRGRRRKF [UIMC1]”, the “solubility in G1/S (log2)” value in the data set with HeLa Kyoto [1] is -0.219. The thermal stability score in the data set with HeLa Kyoto [2] (setting [5]) was determined as 1.12; with HeLa Kyoto [2] (cell cycle stage: mitosis), 1.21. Also, the “solubility change mitosis (log2)” value in the data set with HeLa Kyoto [3] was found to be 0.107. Also, the melting temperature amounted to 51.5 °C in the data set on HeLa Kyoto [4] (cell cycle stage: G1/S) and 52.5 °C in the data set on HeLa Kyoto [4] (cell cycle stage: mitosis).

“MPSAKQRGSKGGHGAASPSEKGAHPSGGADDVAKKPPPAPQQPPPPPAPHPQQHPQQHPQNQAHGKGGHRGGGGGGGKSSSSSSASAAAAAAAASSSASCSRRLGRALNFLFYLALVAAAAFSGWCVHHVLEEVQQVRRSHQDFSRQREELGQGLQGVEQKVQSLQATFGTFESILRSSQHKQDLTEKAVKQGESEVSRISEVLQKLQNEILKDLSDGIHVVKDARERDFTSLENTVEERLTELTKSINDNIAIFTEVQKRSQKEINDMKAKVASLEESEGNKQDLKALKEAVKEIQTSAKSREWDMEALRSTLQTMESDIYTEVRELVSLKQEQQAFKEAADTERLALQALTEKLLRSEESVSRLPEEIRRLEEELRQLKSDSHGPKEDGGFRHSEAFEALQQKSQGLDSRLQHVEDGVLSMQVASARQTESLESLLSKSQEHEQRLAALQGRLEGLGSSEADQDGLASTVRSLGETQLVLYGDVEELKRSVGELPSTVESLQKVQEQVHTLLSQDQAQAARLPPQDFLDRLSSLDNLKASVSQVEADLKMLRTAVDSLVAYSVKIETNENNLESAKGLLDDLRNDLDRLFVKVEKIHEKV [CKAP4]”: in the data set on HeLa Kyoto [1], the “solubility in G1/S (log2)” value worked out at 0.635. The thermal stability score with HeLa Kyoto [2] (setting [5]) was determined as 5.49; in the data set with HeLa Kyoto [2] (cell cycle stage: mitosis) it was 6.55. Further, the “solubility change mitosis (log2)” value in the data set on HeLa Kyoto [3] was 0.148. For the same sequence, the melting temperature amounted to 52 °C in the data set with HeLa Kyoto [4] (cell cycle stage: G1/S) and 52.4 °C with HeLa Kyoto [4] (cell cycle stage: mitosis).

For the sequence “MPSASASRKSQEKPREIMDAAEDYAKERYGISSMIQSQEKPDRVLVRVRDLTIQKADEVVWVRARVHTSRAKGKQCFLVLRQQQFNVQALVAVGDHASKQMVKFAANINKESIVDVEGVVRKVNQKIGSCTQQDVELHVQKIYVISLAEPRLPLQLDDAVRPEAEGEEEGRATVNQDTRLDNRVIDLRTSTSQAVFRLQSGICHLFRETLINKGFVEIQTPKIISAASEGGANVFTVSYFKNNAYLAQSPQLYKQMCICADFEKVFSIGPVFRAEDSNTHRHLTEFVGLDIEMAFNYHYHEVMEEIADTMVQIFKGLQERFQTEIQTVNKQFPCEPFKFLEPTLRLEYCEALAMLREAGVEMGDEDDLSTPNEKLLGHLVKEKYDTDFYILDKYPLAVRPFYTMPDPRNPKQSNSYDMFMRGEEILSGAQRIHDPQLLTERALHHGIDLEKIKAYIDSFRFGAPPHAGGGIGLERVTMLFLGLHNVRQTSMFPRDPKRLTP [DARS]”, the “solubility in G1/S (log2)” value in the data set on HeLa Kyoto [1] was -0.115. Also, the thermal stability score in the data set with HeLa Kyoto [2] (setting [5]) was found to be 0.0385; with HeLa Kyoto [2] (cell cycle stage: mitosis), 4.02. The “solubility change mitosis (log2)” value in the data set with HeLa Kyoto [3] was -0.127. The values for the melting temperature in the data set with HeLa Kyoto [4] (cell cycle stage: G1/S) and in the data set with HeLa Kyoto [4] (cell cycle stage: mitosis) were 49.4 °C and 49.2 °C, respectively.
